Experimental data published in article PMC6005765 (Bioorganic & medicinal chemistry letters, 2018).
Starred links: 1 amine or outer side, 2 acyl side, 3 side chain; linkers in the order of their positions; H or OH if unused. Non-standard residues stand in square brackets, D forms with d. No end group written: not given here. Phe(2-(4-MeO-phenyl)) = COc1ccc(-c2ccccc2C[C@H](N[*:1])C(=O)[*:2])cc1; Phe(2-(4-Cl-phenyl)) = O=C([C@H](Cc1ccccc1-c1ccc(Cl)cc1)N[*:1])[*:2]; Phe(2-(4-F-phenyl)) = O=C([C@H](Cc1ccccc1-c1ccc(F)cc1)N[*:1])[*:2]; Phe(3-(3-thienyl)) = O=C([C@H](Cc1cccc(-c2ccsc2)c1)N[*:1])[*:2]; Phe(4-(3-thienyl)) = O=C([C@H](Cc1ccc(-c2ccsc2)cc1)N[*:1])[*:2]; Phe(2-vinyl) = C=Cc1ccccc1C[C@H](N[*:1])C(=O)[*:2]; Phe(2-Ph) = N[C@@H](Cc1ccccc1-c1ccccc1)C(=O)O; Bip = N[C@@H](Cc1ccc(-c2ccccc2)cc1)C(=O)O; Dmt = Cc1cc(O)cc(C)c1C[C@H](N)C(=O)O; dNMeA = CN[C@H](C)C(=O)O

B1: Dmt-D-Arg-Phe(4-(3-thienyl))-Gly-NH2 (peptide)
peptide: [Dmt][dR][Phe(4-(3-thienyl))]G-NH2
modifications: N-terminus assumed
SMILES: Cc1cc(O)cc(C)c1C[C@H](N)C(=O)N[C@H](CCCNC(=N)N)C(=O)N[C@@H](Cc1ccc(-c2ccsc2)cc1)C(=O)NCC(N)=O
B2: Dmt-D-Arg-Phe(3-(3-thienyl))-Gly-NH2 (peptide)
peptide: [Dmt][dR][Phe(3-(3-thienyl))]G-NH2
modifications: N-terminus assumed
SMILES: Cc1cc(O)cc(C)c1C[C@H](N)C(=O)N[C@H](CCCNC(=N)N)C(=O)N[C@@H](Cc1cccc(-c2ccsc2)c1)C(=O)NCC(N)=O
B3: Dmt-D-Arg-Phe(4-phenyl)-Gly-NH2 (peptide)
peptide: [Dmt][dR][Bip]G-NH2
modifications: N-terminus assumed
SMILES: Cc1cc(O)cc(C)c1C[C@H](N)C(=O)N[C@H](CCCNC(=N)N)C(=O)N[C@@H](Cc1ccc(-c2ccccc2)cc1)C(=O)NCC(N)=O
B4: Dmt-D-Arg-Phe(2-phenyl)-Gly-NH2 (peptide)
peptide: [Dmt][dR][Phe(2-Ph)]G-NH2
modifications: N-terminus assumed
SMILES: Cc1cc(O)cc(C)c1C[C@H](N)C(=O)N[C@H](CCCNC(=N)N)C(=O)N[C@@H](Cc1ccccc1-c1ccccc1)C(=O)NCC(N)=O
B5: Dmt-D-Arg-Phe(2-(4-F-phenyl))-Gly-NH2 (peptide)
peptide: [Dmt][dR][Phe(2-(4-F-phenyl))]G-NH2
modifications: N-terminus assumed
SMILES: Cc1cc(O)cc(C)c1C[C@H](N)C(=O)N[C@H](CCCNC(=N)N)C(=O)N[C@@H](Cc1ccccc1-c1ccc(F)cc1)C(=O)NCC(N)=O
B6: Dmt-N-Me-D-Ala-Phe(2-vinyl)-Gly-NH2 (peptide)
peptide: [Dmt][dNMeA][Phe(2-vinyl)]G-NH2
modifications: N-terminus assumed
SMILES: C=Cc1ccccc1C[C@H](NC(=O)[C@@H](C)N(C)C(=O)[C@@H](N)Cc1c(C)cc(O)cc1C)C(=O)NCC(N)=O
B7: Dmt-D-Arg-Phe(2-(4-Cl-phenyl))-Gly-NH2 (peptide)
peptide: [Dmt][dR][Phe(2-(4-Cl-phenyl))]G-NH2
modifications: N-terminus assumed
SMILES: Cc1cc(O)cc(C)c1C[C@H](N)C(=O)N[C@H](CCCNC(=N)N)C(=O)N[C@@H](Cc1ccccc1-c1ccc(Cl)cc1)C(=O)NCC(N)=O
B8: Dmt-D-Arg-Phe(2-(4-MeO-phenyl))-Gly-NH2 (peptide)
peptide: [Dmt][dR][Phe(2-(4-MeO-phenyl))]G-NH2
modifications: N-terminus assumed
SMILES: COc1ccc(-c2ccccc2C[C@H](NC(=O)[C@@H](CCCNC(=N)N)NC(=O)[C@@H](N)Cc2c(C)cc(O)cc2C)C(=O)NCC(N)=O)cc1

These molecules were tested against δ opioid receptor (UniProt P41143) (assay: radioligand binding). Settings: not given.

Row | Molecule | IC50 [nM]
1 | B1 | 309
2 | B2 | 601
3 | B3 | 42.3
4 | B4 | 20.2

These molecules were tested against μ opioid receptor (UniProt P35372) (assay: radioligand binding). Settings: not given.

Row | Molecule | IC50 [nM]
5 | B1 | 5.04
6 | B2 | 1.03
7 | B3 | 7.08
8 | B4 | 0.54

What follows are molecules tested against δ opioid receptor (UniProt P41143) (assay: not given). Settings: not given.

Row | Molecule | IC50 in the mouse vas deferens (MVD) assay [nM] | IC20 (partial agonist) in the mouse vas deferens (MVD) assay [nM] | IC35 (partial agonist) in the mouse vas deferens (MVD) assay [nM]
9 | B5 | 2.95 |  | 
10 | B1 |  | 3960 | 
11 | B6 | 0.689 |  | 
12 | B2 |  |  | 52.8
13 | B7 | 1.63 |  | 
14 | B3 |  | 3090 | 
15 | B8 | 5.23 |  | 
16 | B4 | 6.99 |  | 

These molecules were tested against μ opioid receptor (UniProt P35372) (assay: not given). Settings: not given.

Row | Molecule | IC50 in the guinea pig ileum (GPI) assay [nM]
17 | Deltorphin II (peptide) | 854
18 | B5 | 0.801
19 | B6 | 0.641
20 | B2 | 30.4
21 | B7 | 2.39
22 | B8 | 0.901
23 | B4 | 3.47

What follows are molecules tested against μ opioid receptor (MOP) (Homo sapiens, UniProt P35372) (assay: not given). Settings: [125I]-DAMGO competition, HEK293 membranes.
Type: binding

μ opioid receptor (MOP), sequence (P35372 whole entry, species assumed): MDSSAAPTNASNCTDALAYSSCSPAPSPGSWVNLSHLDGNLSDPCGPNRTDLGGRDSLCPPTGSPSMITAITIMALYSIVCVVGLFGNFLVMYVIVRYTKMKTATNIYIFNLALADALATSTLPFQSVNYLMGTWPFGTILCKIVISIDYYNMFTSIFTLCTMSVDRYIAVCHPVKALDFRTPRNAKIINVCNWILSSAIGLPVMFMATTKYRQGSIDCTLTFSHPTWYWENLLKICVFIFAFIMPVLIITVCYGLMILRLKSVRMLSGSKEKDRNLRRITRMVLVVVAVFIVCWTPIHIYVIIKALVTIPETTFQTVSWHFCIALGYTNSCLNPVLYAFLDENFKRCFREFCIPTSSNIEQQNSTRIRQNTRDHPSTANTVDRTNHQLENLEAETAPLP

Row | Molecule | MOP IC50
24 | C=Cc1ccccc1C[C@H](NC(=O)[C@@H](CCCNC(=N)N)NC(=O)[C@@H](N)Cc1c(C)cc(O)cc1C)C(=O)NCC(N)=O [Compound 9, Dmt-D-Arg-Phe(2-vinyl)-Gly-NH2] | subnanomolar binding affinity
25 | Cc1cc(O)cc(C)c1C[C@H](N)C(=O)N[C@H](C)C(=O)N[C@@H](Cc1ccccc1-c1ccsc1)C(=O)NCC(N)=O [Compound 16, Dmt-D-Ala-Phe(2-(3-thienyl))-Gly-NH2] | poor affinity for MOP
